From the RNAGym collection of RNA variant scans (doi:10.1073/pnas.2313332121) come the findings set out here.

B1: TPR t1 (parent)
chain: GACCAAUCUGCCCUCAGAGCUCGAGAACAUCUUCGGAUGCAGAGGAGGCAGGCUUCGGUGGCGCGAUAGCGCCAACGUCCUCAACCUCCAAUGCAUCCCACCACAUGAUGAUGCCUGAAGAGCCUUGGUUUUUUG

The variants in the data set derive from B1. The data set can be described thus: polymerase ribozyme fitness, log enrichment relative to wild type (log ratio); higher = more active; in vitro selection for triplet polymerase activity. The method, boiled down:
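Input and output libraries were sequenced on Illumina after a single in vitro selection round, run in triplicate on PCR-built, transcribed mutant libraries of each subunit of a heterodimeric triplet polymerase ribozyme. Selection annealed libraries to a biotinylated primer, the partner subunit and triplets, incubated them frozen at −7 °C, then gel-excised extended constructs for streptavidin-bead capture and RT-PCR. Genotypes with ≥10 input reads and ≥1 read per output were kept. Fitness is the logarithm, taken in base 2, of genotype enrichment divided by wild-type enrichment, using inverse-variance-weighted replicate averages.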
Regarding U7C C34U G61U C88A U116A, the “polymerase ribozyme fitness (log ratio)” value is -5.7.
The same measure for A6C C12A: -1.61; for A6U A41G A91G: -2.5; for A6U C8A G52U C53A C72A U92A C101A U130G: -5.85.
The same measure for A6C G71C: -1.18.
Turning to A6C G47A, the “polymerase ribozyme fitness (log ratio)” value was 0.295.
The same measure for A6C C8U C89U: -0.206.
In the case of U7A C70U, the “polymerase ribozyme fitness (log ratio)” value is -0.0171.
The value for A6C U9G G69U A83G A91C G117U was -0.828; that for A6U C34G U87A G120A was -3.94; that for U7C C85G U87C was -1.57.
For A6G A111U, the “polymerase ribozyme fitness (log ratio)” value was -2.51.
In the case of U7A C40U G48U C53G C85A A119U, the “polymerase ribozyme fitness (log ratio)” value is -0.816.
The same measure for A6G C98U: -1.69; for A6C C72U: -0.203; for A6C C72A: -1.05.
The value for A6U A16C was -2.44.
For the variant U7C C31A A119G U133A, the “polymerase ribozyme fitness (log ratio)” value was -6.12.
The value for A5U U9G C62A was -0.961.
The same measure for A6G U30C C73U C124A: -1.64.
The value for U7C A37U A41C G47U C53G G65A C85G A95C A111G A118U was -7.71; that for A6G G39U was -0.397; that for U7A A105U C115U was -3.4.
In the case of U7A U81G G122A, the “polymerase ribozyme fitness (log ratio)” value is -5.92.
The same measure for U7A C13G U32C U38G G63C: -2.61; for A6G U96A C102A U129A: -5.24; for A6C C31G C34U G42U G93C A111C: -6.9.
As to A6G G52U, the “polymerase ribozyme fitness (log ratio)” value is -1.27.
The same measure for A6C C40A C53G C99U U109A U112G: -5.56; for U7C C8G C53G C101A: -0.517; for A6G C12G A46U A50U C56U C73A: -2.15.
The value for A6C G42U G63C C79U was -2.06; that for A6G C56G G69A C79A was -5.03.
With U7A C72G C88A C89G C102A G107A G113A, the “polymerase ribozyme fitness (log ratio)” value is -6.44.
The same measure for A6U A27G C79U A111C: -4.62.
The same measure for U7A G36C G52A U55G: -0.803; for A6C G35C G57U G58U G60C U81G A111G U125C G135A: -6.83; for A6G U7G A18C G48U C53A G63A C115A U133A: -1.29.
The value for U7A U9C C12U G57C was 0.0479; that for A6U G36A was -0.596; that for A5U U9G G47A G52U was -1.96.
On to A6G A90G U112A, for which the “polymerase ribozyme fitness (log ratio)” value is 1.69.
The same measure for A6U A43U G63C G113U: -3.4; for A6G U30C G63A A111U G127C: -5.37; for A6U G10U C13A C22A C49U G63A: -5.88.
The value for A6C G61U U87A was -0.857.
The value for U7A U21A G61C C114G was -5.5; that for A6U C15G U33A G63A G93A G113U was -6.39.
Regarding U7C A16G A29U G63U C97U U109A, the “polymerase ribozyme fitness (log ratio)” value is -1.24.
The value for A6G C72A was 0.991.
On to A6G C72U, for which the “polymerase ribozyme fitness (log ratio)” value is 0.164.
The same measure for A6U C56G: -0.948; for U7A C15G C88U C124U: 0.702.
The value for U7A C72A was -0.427; that for A6C C15U was -1.98; that for A6C C13U C53U C85U A105U C124A U126G was -3.62.
The value for A6U C12G C72U U78C was -0.414; that for A5U G63U G110A was -2.89; that for U7A C64U C89G A91U C97U C115U was -2.72.
Turning to U7A U92A G120A U133A, the “polymerase ribozyme fitness (log ratio)” value was -0.782.
On to A6C U9G G69U A83G A91C G117U G135A, for which the “polymerase ribozyme fitness (log ratio)” value was 0.71.
With A6U G58A A83U U106A, the “polymerase ribozyme fitness (log ratio)” value was determined as 0.545.
The value for U7A C101A was -1.43.
The value for U7C C62U was -1.11; that for A6U C12U U81C was -0.545.
The value for A6U G23A G69C C115A U126A U131G was -6.34; that for A6G G45C C94U G120A U126G was -5.4; that for A6C C40G A95C was -5.15.
For A6U C28G G58A A100U, the “polymerase ribozyme fitness (log ratio)” value was -3.49.
The same measure for U7A G17U G117A A118G: -2.58.
The value for A6G G48U U54A G127A was -2.59.
The value for U7A U106A was 0.182; that for U7A A103C was -4.75; that for A6G A41C G57U G60A A100U was -2.82.
On to U7C C8G C62U G93U A95C, for which the “polymerase ribozyme fitness (log ratio)” value is -0.906.
The value for A6C A27G A121C was -0.0909.
The same measure for A6U C124U: 1.56; for A6U G57C G63A A90G: -0.878.
Consider U7C A91U C94G, for which the “polymerase ribozyme fitness (log ratio)” value was -2.67.
As for A6U A26C C34G C64G A111U, the “polymerase ribozyme fitness (log ratio)” value is -7.61.
The value for U7C C11G A16G G52U U59G C72U was -0.58; that for U7C C53G C56A G60A A111G was 0.682; that for A6U G135U was -0.769.
The same measure for A6U A46U G110U: -2.57; for A6G C79U C88G C104U: -1.13; for A6C G113U: -3.54.
The same measure for A5U U54C G60A U112C: 1.52; for U7C A18U C53U G60U G61U: -4.77.
Consider A6C C22A U87C G113C, for which the “polymerase ribozyme fitness (log ratio)” value was -5.35.
The same measure for A6U G60U C64U A91G C102G G110U: -7.78; for A6C G39U: -1.84; for U7A G69C A95G: -0.796.
The same measure for A6G C85U G113A: -2.51; for A6U G69U: 0.777; for A6G G63U C124A G128U: -1.92.
The value for A6C U7A A27G U78C G113A was -1.35; that for A6U G48A A68G C123A was -2.21; that for A6C G61U U78C A100U G120A U131C was 0.181.
A6C C56G: the “polymerase ribozyme fitness (log ratio)” value is -0.703.
The same measure for U7C C62U C99G U112G U132C U134A G135U: -6.65; for A6C A18U: -2.13.
The value for A6G U112G C114G A119G U131C was -5.15; that for A6U G45U G52C C72U G122A was -2.56.
Regarding U7A C70U G77U U92C G117C, the “polymerase ribozyme fitness (log ratio)” value was -5.47.
The same measure for U7A U33A A100G G120C G135A: -3.75.
The same measure for U7C C70U: -1.31.
The same measure for A6U G61C: -1.18; for U7C C11A G45C G58A A121C: 0.57.
For the variant U7A U21C, the “polymerase ribozyme fitness (log ratio)” value turned out to be 0.0698.
The same measure for U7A G48C C85U G120C: -0.382; for A6U A84C C86G G93U: -2.38; for A6U G52U C53G G128C: -3.38.
The value for U7C A18C U78C C82U was -1.52.
The same measure for U7A C73A C88G A111U U129G: -6.86.
As for A6G A16G G17U A18G G47A G61U, the “polymerase ribozyme fitness (log ratio)” value was -3.02.
Regarding A6C U38A C53G, the “polymerase ribozyme fitness (log ratio)” value is -0.826.
The value for A6U U30C G93U G120U was -3.6; that for A6C C11G C15U C102A G120A U133A was -2.14; that for A5U G71C C102G C114G C115G was -6.55.
The value for U7C A83G A84C was -1.08.
On to U7A C53U U59G G60U C72G, for which the “polymerase ribozyme fitness (log ratio)” value is -0.651.
The value for A6U G110U was -1.36; that for A6G C31A G42U C53U A95U C101U C114U U126A was -5.71; that for A6U A46C C85G G113A G135C was -3.74.
The value for A6U C53G C82A A83G was -0.829.
The same measure for A6U G69A C124A: -1.22; for A6U A50G C123A G128C: -0.104; for A6C C13A C88A: -3.16.
A6G G44C C49G: the “polymerase ribozyme fitness (log ratio)” value was -1.68.
The value for A6U U55C C76U was -0.164; that for A6U U78G A83C was -0.41; that for A6C C11A C85U U112G was -2.47.
The same measure for U7A G52U G60A G61C C62U: -6.92.
The same measure for A6C C85A: -2.67.
In the case of A6U G45A G52A A75U, the “polymerase ribozyme fitness (log ratio)” value was -0.0939.
The same measure for A6G C88U G113U: -2.37; for A6U C15G U59G: -2.42; for A6C A29U C56U C94A U112G: -3.35.
The same measure for U7A A27U G48U U87C G120U: -2.16; for A6C C53A G69C G120A: -1.04; for U7A C82A U116C C123A: -2.73.
Consider A6C G48U C53U U59G C64U A95G, for which the “polymerase ribozyme fitness (log ratio)” value is -3.63.
The same measure for A6C C12A C53U U78C: -1.07; for A6G C11A U109G A119C C123G U125C: -5.22.
As for A5U U81A, the “polymerase ribozyme fitness (log ratio)” value is -1.15.
The value for A6G C70A was -2.41; that for A6G C15U C49A C53A G71U U78A was -0.614.
The value for A5U U9C C31U G39A G120U was -3.67.
The same measure for A6U C12A G61U: 0.0933; for A6U G63U U78C C97U G120C: -3.08; for U7A U21G A75G: -1.8.
For A6U C94A U96G, the “polymerase ribozyme fitness (log ratio)” value was -3.1.
The value for U7A C34A G61U C97U was -2.06; that for A6C A16C G44C was -3.74; that for A6U C15G G61A was -1.82.
The value for A6U C13A U21C was -1.41; that for U7A A50U G57A A83U was -1.44; that for A6C U133A was -0.897.
The same measure for A6C G57C C72U: -0.529; for U7A C13U G71A C115U G128A: -2.21; for A6U C8G C13U C20U G51A G61U: -4.27.
Consider U7C C34A G44C A84U, for which the “polymerase ribozyme fitness (log ratio)” value was -4.89.
The same measure for A5U U38A G42U C72U A74U C85A C101A: -5.64; for U7A C8U G61U: 0.322.
In the case of U7A C12U A43U C49A C114G, the “polymerase ribozyme fitness (log ratio)” value was -1.69.
The same measure for U7A G61C A91C C114A C115G: -7.29; for A6U C76U: -0.345.
